B1: human ZDHHC6 (WT), Myc-tagged [human] / human ZDHHC6 (WT), Myc-tagged [human] (parent)
chain 1: MGTFCSVIKFENLQELKRLCHWGPIIALGVIAICSTMAMIDSVLWYWPLHTTGGSVNFIMLINWTVMILYNYFNAMFVGPGFVPLGWKPEISQDTMYLQYCKVCQAYKAPRSHHCRKCNRCVMKMDHHCPWINNCCGYQNHASFTLFLLLAPLGCIHAAFIFVMTMYTQLYHRLSFGWNTVKIDMSAARRDPLPIVPFGLAAFATTLFALGLALGTTIAVGMLFFIQMKIILRNKTSIESWIEEKAKDRIQYYQLDEVFVFPYDMGSRWRNFKQVFTWSGVPEGDGLEWPVREGCHQYSLTIEQLKQKADKRVRSVRYKVIEDYSGACCPLNKGIKTFFTSPCTEEPRIQLQKGEFILATRGLRYWLYGDKILDDSFIEGVSRIRGWFPRKCVEKCPCDAETDQAPEGEKKNR
chain 2: B1 chain 1

Variants of: B1
Assay: co-immunoprecipitation (IP with myc antibodies, anti-GFP immunoblot, densitometry)
Conditions: HeLa cells transfected for 24 hr, n = 4, parent: 100, read off a plot

| Variant | percent of parent |
| --- | --- |
| chain 1 MGTFCSVIKFENLQELKRLCHWGPIIALGVIAICSTMAMIDSVLWYWPLHTTGGSVNFIMLINWTVMILYNYFNAMFVGPGFVPLGWKPEISQDTMYLQYCKVCQAYKAPRSHHCRKCNRCVMKMDHHCPWINNCCGYQNHASFTLFLLLAPLGCIHAAFIFVMTMYTQLYHRLSFGWNTVKIDMSAARRDPLPIVPFGLAAFATTLFALGLALGTTIAVGMLFFIQMKIILRNKTSIESWIEEKAKDRIQYYQLDEVFVFPYDMGSRWRNFKQVFTWSGVPEGDGLEWPVREGCHQYSLTIEQLKQKADKRVRSVRYKVIEDYSGAAAPLNKGIKTFFTSPATEEPRIQLQKGEFILATRGLRYWLYGDKILDDSFIEGVSRIRGWFPRKCVEKCPCDAETDQAPEGEKKNR [chain 1 C328A C329A C343A] | 39 % of WT |

From article PMC5582869
